One experiment deals with T1, mouse Rrn3 (mouse, UniProt B2RS91 1-656, limits assumed).
T1 construct: Two-hybrid fusion partner not described; also called mRrn3
The experiment is described as follows: yeast two-hybrid.

The next experiment addresses T2, human Rrn3 (human, UniProt Q9NYV6 1-651, limits assumed).
T2 construct: Two-hybrid fusion partner not described; also called hRrn3
In words: yeast two-hybrid.

T1 sequence (B2RS91 whole entry, the tested form may be a part): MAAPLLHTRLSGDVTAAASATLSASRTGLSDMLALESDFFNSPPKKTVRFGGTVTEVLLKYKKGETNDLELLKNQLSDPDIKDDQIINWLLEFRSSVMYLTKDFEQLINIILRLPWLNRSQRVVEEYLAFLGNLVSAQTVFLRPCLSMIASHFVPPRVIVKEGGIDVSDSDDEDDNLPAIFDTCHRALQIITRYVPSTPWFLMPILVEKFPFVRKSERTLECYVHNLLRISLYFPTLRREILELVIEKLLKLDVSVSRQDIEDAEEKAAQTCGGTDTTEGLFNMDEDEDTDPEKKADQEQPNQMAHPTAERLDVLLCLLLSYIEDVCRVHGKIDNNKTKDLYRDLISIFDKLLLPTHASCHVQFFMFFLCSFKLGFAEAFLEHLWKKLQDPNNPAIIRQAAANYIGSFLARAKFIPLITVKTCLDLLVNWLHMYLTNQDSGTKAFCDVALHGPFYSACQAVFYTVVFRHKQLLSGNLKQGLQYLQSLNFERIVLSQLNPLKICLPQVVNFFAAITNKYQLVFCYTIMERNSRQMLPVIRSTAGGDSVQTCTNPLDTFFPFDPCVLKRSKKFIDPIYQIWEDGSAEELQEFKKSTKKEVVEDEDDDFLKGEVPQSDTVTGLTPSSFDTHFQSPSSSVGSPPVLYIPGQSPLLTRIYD
T2 sequence (Q9NYV6 whole entry, the tested form may be a part): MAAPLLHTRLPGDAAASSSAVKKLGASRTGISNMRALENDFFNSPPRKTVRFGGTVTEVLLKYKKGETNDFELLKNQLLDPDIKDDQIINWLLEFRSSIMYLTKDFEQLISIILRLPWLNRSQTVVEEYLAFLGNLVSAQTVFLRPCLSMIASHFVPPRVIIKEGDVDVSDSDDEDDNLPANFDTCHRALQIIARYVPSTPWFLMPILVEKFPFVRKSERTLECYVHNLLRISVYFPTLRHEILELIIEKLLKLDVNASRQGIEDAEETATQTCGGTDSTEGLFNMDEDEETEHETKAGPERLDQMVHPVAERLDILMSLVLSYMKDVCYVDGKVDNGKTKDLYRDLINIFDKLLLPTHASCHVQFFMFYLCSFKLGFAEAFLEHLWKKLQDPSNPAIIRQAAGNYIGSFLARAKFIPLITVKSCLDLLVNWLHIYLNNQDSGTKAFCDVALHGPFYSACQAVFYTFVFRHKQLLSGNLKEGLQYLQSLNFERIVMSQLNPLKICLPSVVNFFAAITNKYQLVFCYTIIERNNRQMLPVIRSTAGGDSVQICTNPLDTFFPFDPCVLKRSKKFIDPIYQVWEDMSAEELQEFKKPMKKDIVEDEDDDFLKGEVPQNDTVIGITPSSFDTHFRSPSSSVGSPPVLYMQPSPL

B1: mouse Rpa43 (43 kDa subunit of RNA polymerase I), wild type (other, UniProt Q78WZ7 1-330, looked up)
chain: MAAGSVESQRSQAASERPVAGQAGVLPCLELPSYAAACALVGSRYSCLVAAPHRRHIALSPRYLSRKRTGIREQLDAELLRYSESLLGVPIAYDNIRVVGELGDIYDDQGHIHLNIEADFVIFCPEPGQTLMGTVNKVSSSHIGCLVHGCFNASIPKPEQMSYEEWQTLEIHVGDELEFDVFRLDSDSAGVFCIRGKLSTTSLQLKHSAVSEDVAETVVEEVVEKTPKKKKKKKDKDTDTCGTVDSVTEVADVTDVTPQEETDIPCSDNVNDFFEEEPKKKKKKKKRHQEDQDPIFQASDSSGYQSDHNKKKKKRKHSEEANFESPKKRQ
notes: also called mRPA43; wild type Rpa43
Regarding B1, the binding result with mouse Rrn3 and in the experiment with human Rrn3 was “binds” in each case.

The values are drawn from patent US20130143318A1 (BOARD OF REGENTS OF THE UNIVERSITY OF OKLAHOMA, published 2013).
